Test results published in article PMC3567243 (Molecular Microbiology, 2012).

Test system: CC1=CC(=O)c2ccccc2C1=O
Assay: purified protein

(Mycobacterium tuberculosis H37Rv)
Km: 17.29 ± 11.63 µM
kcat/Km: 94500 M⁻¹ s⁻¹
